One experiment deals with T1, rfCK18 (239-396) (human, UniProt P05783 239-396).
T1 construct: Bought (Cloud-Clone-Corp.); captured through an anti-GST or penta HIS antibody, the tag is not described
T1 sequence: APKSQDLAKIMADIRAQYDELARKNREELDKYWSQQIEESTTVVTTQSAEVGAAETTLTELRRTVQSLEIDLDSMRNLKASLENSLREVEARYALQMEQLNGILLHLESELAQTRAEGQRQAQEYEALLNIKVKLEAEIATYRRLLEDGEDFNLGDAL
Put plainly: solid phase ELISA, antigen captured through anti-GST or penta HIS antibody. The method, then: (1) An ANTI GST antibody or a penta HIS antibody was added to an ELISA plat at 2.5 μg/mL and 50 μL/well, and the plate was allowed to stand at 4° C. overnight to immobilize the antibody. Thereafter, the plate was washed three times with PBST, and Buffer I′ (10 mM NaH₂PO₄.2H₂O, 149.7 mM NaCl, 2.5 mM EDTA 2Na, 0.10% BSA, pH 7.0) was added thereto at 200 μL/well to prepare a plate stored at 4° C. overnight. […] (3) The plate was washed three times with PBST, and 50 μL each of each antigen diluent was added thereto, followed by shaking for 45 minutes. […] (6) The plate was washed three times with PBST, and 15000-fold diluted Peroxidase-conjugated Affinipure F(ab)′2 Fragment Goat Anti-Mouse IgG (H+L) (Jackson) was added thereto at 50 μL/well, followed by shaking for 45 minutes. (7) The plate was washed three times with PBST, TMB Mix (1-step Ultra TMB-ELISA (Thermo Scientific):3% H₂O₂: Phosphate-Citrate buffer (Sigma)=15:0.15:14.85) was added thereto at 100 μL/well, and the mixture was reacted at room temperature for 10 minutes. Thereafter, 1 M H₂SO₄ was added thereto at 100 μL/well to stop the reaction. (8) Absorbance of the reaction solution at 450 nm was measured with a plate reader.
A general note: An ELISA detects its analyte on a solid surface through an enzyme-linked reagent.

In experiment [1] the target is T2, fCK18 in apoptosis-induced HepG2 cell culture supernatant (human, UniProt P05783 239-397).
T2 construct: Natural CK18 fragment from the culture supernatant of apoptosis-induced HepG2 cells (band around 18 KDa); also called fCK18 in apoptosis-inducing cells
T2 sequence: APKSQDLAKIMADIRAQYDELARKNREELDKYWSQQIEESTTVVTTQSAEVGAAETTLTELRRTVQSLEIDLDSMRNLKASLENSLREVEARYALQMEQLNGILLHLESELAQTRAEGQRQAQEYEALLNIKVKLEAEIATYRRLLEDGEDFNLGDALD
Kind of experiment: plate ELISA with K18-624 magnetic microbeads, K18-328Fab-ALP detector; fCK18 0.74 ng/mL. The method, then: (§1) Measurement samples of 3-fold dilution series (3-fold to 6561-fold dilution) were prepared from the apoptosis-induced HepG2 cell culture supernatant with a diluent (TBS, pH 7.5, 2% BSA), and fCK18 was measured. […] Based on the prepared calibration curve, fCK18 in the measurement sample was measured.
(§2) This solution was added to an ELISA plate at 25 μL/well, then each measurement sample was added at 25 μL/well, and the plate was incubated (1500 rpm, RT, 20 min). […] (3) After washing the plate, the HISCL (registered trademark) R4 reagent was added thereto at 50 μL/well, and then the mixture was stirred (1500 rpm, RT, 1 min). Thereafter, the HISCL (registered trademark) R5 reagent was added at 100 μL/well, and then the mixture was stirred (1000 rpm, RT, 10 sec). (4) Luminescence intensity was measured with a plate reader.

The target of experiment [2] is T2, fCK18 in apoptosis-induced HepG2 cell …. Kind of experiment: plate ELISA with K18-624 magnetic microbeads, K18-328Fab-ALP detector; fCK18 6.79 ng/mL. The method, then:
as §1, §2

Experiment [3] has the same target. Put plainly: plate ELISA with K18-624 magnetic microbeads, K18-328Fab-ALP detector; fCK18 182.28 ng/mL. The protocol:
as §1, §2

Experiment [4] has the same target. Put plainly: HISCL sandwich immunoassay; K18-624 magnetic microbeads capture, K18-328Fab-ALP detector; fCK18 0.09 ng/mL.
Experiment [5] shares this target. Kind of experiment: HISCL sandwich immunoassay; K18-624 magnetic microbeads capture, K18-328Fab-ALP detector; fCK18 0.28 ng/mL.
Experiment [6] shares this target. Put plainly: HISCL sandwich immunoassay; K18-624 magnetic microbeads capture, K18-328Fab-ALP detector; fCK18 2.23 ng/mL.
Experiment [7] shares this target. Kind of experiment: HISCL sandwich immunoassay; K18-624 magnetic microbeads capture, K18-328Fab-ALP detector; fCK18 6.79 ng/mL. The protocol:
as §1, §2

A further experiment has as its target T3, Peptide 19 (human).
T3 peptide: Biotin-MEQLNGILLHLESELAQT
Kind of experiment: solid phase ELISA; biotinylated peptide on plate, antibody 2 ug/ml.

The target in the next experiment is T4, Peptide 20 (human).
T4 peptide: Biotin-ILLHLESELAQTRAEGQR
The description is as above.

The next experiment deals with T5, Peptide 22 (human).
T5 peptide: Biotin-RAEGQRQAQEYEALLNIK
The description is as above.

A further experiment has as its target T6, Peptide 23 (human).
T6 peptide: Biotin-QAQEYEALLNIKVKLEAE
Described as above.

Another experiment addresses T7, Peptide 24 (human).
T7 peptide: Biotin-ALLNIKVKLEAEIATYRR
The description is as above.

The target of a further experiment is T8, Peptide 25 (human).
T8 peptide: Biotin-VKLEAEIATYRRLLEDGE
Described as above.

The target in another experiment is T9, Peptide 26 (human).
T9 peptide: Biotin-IATYRRLLEDGEDFNLGD
The description is as above.

In another experiment the target is T10, Peptide 27 (human).
T10 peptide: Biotin-LLEDGEDFNLGDALD
Described as above.

Where no end group is shown, it is not given here. The star is where a group is joined. Biotin = O=C1N[C@H]2[C@H](CS[C@H]2CCCCC(=O)*)N1

B1: K18-624 antibody (antibody, V domains shown)
VH: DVQLVESGGGLVQPGGSRKLSCAASGFTFSSFGMHWVRQAPEKGLEWVAYISSGSTTIYYADTVKGRFTISRDNPKNTLFLQMTSLRSEDTAMYYCARRGMITTGAWFAYWGQGTLVTVSA
VL: DILLTQSPAILSVSPGERVSFSCRASQRIGTSIHWYQQRTNGSPRLLIKYASESISGIPSRFSGSGSGTDFTLSINSVESEDIADYYCQQSYIWPFTFGSGTKLEIK
notes: Mouse monoclonal antibody from a hybridoma (Balb/C mouse immunised with Peptide 1-KLH)
For the molecule B1, the binding result in the experiment with rfCK18 (239-396) is “no binding (tested: 5 to 10 ng/mL)”. Moreover, the S/N ratio in experiment [1] was found to be 16.1; in [2] it was 158; in experiment [3], 5560; in [4], 1.9; in [5] it was 3.8; in [6], 25.9. Further, the S/N ratio in experiment [7] was 75.7.

B2: K18-328 antibody (antibody, V domains shown)
VH: QVHLQQSAAELARPGASVKMSCKASGYTFTNYTIHWIKQRPGQGLEWIGYINPSSGYTDYNQNFKDKTTLTADKSSTTVYMQLSSLTSEDSAVYYCARQIPFAYWGQGTLVTVSA
VL: not shown
notes: Mouse monoclonal antibody from a hybridoma (immunogen full length rCK18)
B2: the Abs450 worked out at 0.01 with Peptide 19; 0 with Peptide 20; 0 with Peptide 22; 0.02 in the experiment with Peptide 23; 0.01 with Peptide 24; 0.01 with Peptide 25. For the same molecule, the Abs450 stood at 0.01 with Peptide 26 and 0 with Peptide 27.
